The values that follow are results of earlier work, collected in PMC12564422.

One may read the Kd as the constant that tells how readily two partners part at equilibrium.

In the series the target is EGFR (epidermal growth factor receptor) (UniProt P00533). The series is described as follows: cited. To be noted: 3'-thiol; about 50 nm AuNPs, resuspended in water; aptamer M and Atto 1.2e-7 M, EGFR 880 pM, 1 h incubation; Tris-EDTA buffer listed among materials; salt, pH and ….

With “GGACGGATTTAATCGCCGTAGAAAAGCATGTCAAAGCCGGAACCGTCC [aptamer M (EGFR-specific)]”, the Kd was 2.4 nM.
